# Measured values: US20220306733A1 (ITEOS BELGUIM, published 2022)
# Where a chain is given by its changes, count along the chain named. Numbers in names are those of the source.
# T1: human TIGIT on cells (Jurkat-hTIGIT, human primary T cells) (human, UniProt Q495A1 22-244)
# T1 construct: whole, on cells; The cell type is named in each row's assay; also called membrane expressed human TIGIT
# T1 sequence (looked up): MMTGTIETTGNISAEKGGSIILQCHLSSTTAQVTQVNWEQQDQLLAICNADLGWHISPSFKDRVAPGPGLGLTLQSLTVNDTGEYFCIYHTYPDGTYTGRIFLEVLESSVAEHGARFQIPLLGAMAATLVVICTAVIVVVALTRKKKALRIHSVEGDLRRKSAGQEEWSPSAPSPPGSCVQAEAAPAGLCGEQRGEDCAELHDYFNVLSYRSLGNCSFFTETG
# T2: mouse TIGIT on cells (Jurkat-mTIGIT) (mouse, UniProt P86176 29-249)
# T2 sequence (looked up): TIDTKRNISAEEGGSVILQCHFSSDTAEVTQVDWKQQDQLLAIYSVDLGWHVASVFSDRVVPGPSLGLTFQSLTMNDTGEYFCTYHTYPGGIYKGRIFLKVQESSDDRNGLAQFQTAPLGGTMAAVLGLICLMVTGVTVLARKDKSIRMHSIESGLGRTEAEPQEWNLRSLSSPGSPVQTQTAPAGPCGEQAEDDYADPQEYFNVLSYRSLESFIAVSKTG
# B1: anti-TIGIT antibody clone 26486 (antibody, V domains shown)
# VH: QVQLQESGPGLVKPSETLSLTCAVSGYSISSGYYWAWIRQPPGKGLEWIGSIYHSGSTYYNPSLKSRVTISVDTSKNQFSLKLSSVTAADTAVYYCAIEGANYYDFGYVAFDIWGQGTMVTVSS
# VL: EIVMTQSPATLSVSPGERATLSCRASQSVSSNLAWYQQKPGQAPRLLIYGASTRATGIPARFSGSGSGTEFTLTISSLQSEDFAVYYCQQSPPWPRTFGGGTKVEIK
# notes: Naive parent clone, VH4-0B; human IgG; Fab for 'Fab KD' columns
# B2: anti-TIGIT antibody clone 29494 (antibody, V domains shown)
# VH: QVQLQESGPGLVKPSETLSLTCTVSGGSISSGSYYLAWIRQPPGKGLEWIGSIFRSGSTYYNPSLESRVTISVDTSKNQFSLKLSSVTAADTAVYYCAIEGANFKDFGYVAFDIWGQGTMVTVSS
# VL: B1 VL
# notes: human IgG; Fab for 'Fab KD' columns
# B3: anti-TIGIT antibody clone 29499 (antibody, V domains shown)
# VH: B2 VH with V2L, G32S, S33R, L36W, F54G, R55T, E66K, A90T, K105R
# VL: B1 VL
# notes: as for B2
# B4: anti-TIGIT antibody clone 26493 (antibody, V domains shown)
# VH: EVQLVESGGGLVQPGRSLRLSCAASGFTFGDYAMHWVRQAPGKGLEWVSGITWNSGSIGYADSVKGRFTISRDNAKNSLYLQMNSLRAEDTALYYCAKPVPKSRGLDVWGQGTMVTVSS
# VL: DIQLTQSPSSVSASVGDRVTITCRASQGISSWLAWYQQKPGKAPKLLIYGASSLQSGVPSRFSGSGSGTDFTLTISSLQPEDFATYYCQQAFYLPWTFGGGTKVEIK
# notes: Naive parent clone, VH3-09; human IgG; Fab for 'Fab KD' columns; mouse IgG2a/IgG1 versions only used in vivo / ex vivo; also called surrogate anti-TIGIT antagonistic antibody
# B5: anti-TIGIT antibody clone 29478 (antibody, V domains shown)
# VH: EVQLVESGGGVVQPGRSLRLSCAASGFTFESYGMVWVRQAPGKGLEWVASILYDGSNRYYADSVKGRFTVSRDNSKNTLYLQMNSLRAEDTAVYYCARVSYYYDSVELRWAEYFQHWGQGTLVTVSS
# VL: EIVLTQSPATLSLSPGERATLSCRASQSVSSYLAWYQQKPGQAPRLLIYDASKRATGIPARFSGSGSGTDFTLTISSLEPEDFAVYYCQQVHNFPLTFGGGTKVEIK
# notes: as for B2
# B6: anti-TIGIT antibody clone 32959 (antibody, human IgG1, V domains shown)
# VH: QVQLVQSGAEVKKPGSSVKVSCKASGGTFSSYLISWVRQAPGQGLEWMGGIYPIFATANYAQKFQGRVTITADESTSTAYMELSSLRSEDTAVYYCAREAQSYRVPFDIWGQGTMVTVSS
# VL: EIVMTQSPATLSVSPGERATLSCRASQSVSSNLAWYQQKPGQAPRLLIYGASTRATGIPARFSGSGSGTEFTLTISSLQSEDFAVYYCQQYAIWPPFTFGGGTKVEIK
# modifications: AF647 dye coupled to the antibody in Examples 24 and 36; the site is not stated and the letters do not carry it.
# notes: human IgG1 from HEK cells
# B7: comparative anti-TIGIT antibody 4.1D3.Q1E (antibody, human IgG1, V domains shown)
# VH: EVQLQQSGPGLVKPSQTLSLTCAISGDSVSSNSAAWNWIRQSPSRGLEWLGKTYYRFKWYSDYAVSVKGRITINPDTSKNQFSLQLNSVTPEDTAVFYCTRESTTYDLLAGPFDYWGQGTLVTVSS
# VL: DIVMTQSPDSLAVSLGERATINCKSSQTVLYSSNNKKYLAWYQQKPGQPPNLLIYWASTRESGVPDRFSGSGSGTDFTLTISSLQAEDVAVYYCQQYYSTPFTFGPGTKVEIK
# B8: comparative anti-TIGIT antibody 22G2 (antibody, human IgG1, V domains shown)
# VH: QVHLQESGPGLVKPSETLSLTCTVSGGSVSSGIYYWSWIRQPPGKGLEWIGYIYYSGSTNYNPSLKSRVTISVDTSKNQFSLKLSSVTAADTAVYYCARDYYVSGNYYNVDYYFFGVDVWGQGTTVTVSS
# VL: EIVLTQSPATLSLSPGERATLSCRASQSVSSYLAWYQQKPGQAPRLLIYDASNRATGIPARFSGSGSGTDFTLTISSLEPEDFAVYYCQQRSNWPPLFTFGPGTKVDIK
# B9: comparative anti-TIGIT antibody 31C6 (MEB125.31C6.A1.205 VH4/VL1) (antibody, human IgG1, V domains shown)
# VH: EVQLVQSGAEVKKPGASVKVSCKASGYTFSSYVMHWVRQAPGQGLEWIGYIDPYNDGAKYAQKFQGRVTLTSDKSTSTVYMELSSLRSEDTAVYYCARGGPYGWYFDVWGQGTTVTVSS
# VL: DIQMTQSPSSLSASVGDRVTITCRASEHIYSYLSWYQQKPGKAPKLLIYNAKTLAEGVPSRFSGSGSGTDFTLTISSLQPEDFATYYCQHHFGSPLTFGQGTRLEIK
# B10: anti-TIGIT antibody clone 31282 (antibody, V domains shown)
# VH: QVQLVQSGAEVKKPGASVKVSCKASGYTFTSYYMHWVRQAPGQGLEWMGVIGPSGASTSYAQKFQGRVTLTRDTSTSTVYMELSSLRSEDTAVYYCARDHSDYWSGIMEVWGQGTTVTVSS
# VL: EIVLTQSPGTLSLSPGERATLSCRASQSVRSSYLAWYQQKPGQAPRLLIYGASSRATGIPDRFSGSGSGTDFTLTISRLEPEDFAVYYCQQYFSPPWTFGGGTKVEIK
# Molecular target: T1, human TIGIT on cells (Jurkat-hTIGIT, …)
# Experiment: flow cytometry on Jurkat-hTIGIT, 100 nM antibody, vs untransfected Jurkat
# Experimental: (§1) Antibodies were incubated with the cells for 20 min at 4° C. in FACS buffer. […] Geometric mean fluorecence intensity was analysed using LSR BD Fortessa. Cell binding was recorded as the median florescence intensity of PE on the transfected line compared to the un-transfected line for each antibody (Table 3).
row,Cell binding FON (Fold Over Negative),Binder
1,143 fold over negative,B1
2,164 fold over negative,B2
3,164 fold over negative,B3
4,80 fold over negative,B4
5,182 fold over negative,B5

# Molecular target: T1, human TIGIT on cells (Jurkat-hTIGIT, …)
# Experiment: flow cytometry on Jurkat-hTIGIT, no 31282
row,Cell binding Jurkat Human TIGIT FON (Fold Over Negative),Binder
1,588 fold over negative,B6

# Molecular target: T1, human TIGIT on cells (Jurkat-hTIGIT, …)
# Experiment: cell-based or functional assay
"EC50 (nM), luciferase, Jurkat-hTIGIT + CHO-CD155","luciferase induction over isotype control (fold change), Jurkat-hTIGIT + CHO-CD155",Binder
10.3 nM,5.8 fold,B7
5.2 nM,5.3 fold,B8
5.3 nM,6.7 fold,B9

# Molecular target: T1, human TIGIT on cells (Jurkat-hTIGIT, …)
# Experiment: cell-based or functional assay
# Remark: another data set of the same source
row,"luciferase induction over isotype control (fold change), Jurkat-hTIGIT + CHO-TCR-CD155 bioassay, 133 nM antibody",Binder
1,1.9 fold,B1
2,3.42 fold,B2
3,3.68 fold,B3
4,0.96 fold,B4
5,3.57 fold,B5

# Molecular target: T2, mouse TIGIT on cells (Jurkat-mTIGIT)
# Experiment: cell-based or functional assay
row,"IFNg production by mouse OT-1 CD8+ T cells co-cultured with OVA-pulsed PanO2 cells, 133 nM antibody",Binder
1,~2 fold,B4

# Molecular target: T1, human TIGIT on cells (Jurkat-hTIGIT, …)
# Experiment: cell-based or functional assay
# Remark: another data set of the same source
"EC50 (nM), IFNg, human primary CD8+ T cells + CHO-CD155","IFNg induction over isotype control (fold change), human primary CD8+ T cells + CHO-CD155",Binder
1.43 nM,2.9 fold,B7
0.41 nM,1.5 fold,B8
0.3 nM,1.6 fold,B9

# Molecular target: T2, mouse TIGIT on cells (Jurkat-mTIGIT)
# Experiment: flow cytometry on Jurkat-mTIGIT, 100 nM antibody, vs untransfected Jurkat
# Experimental: as §1
row,Cell binding FON (Fold Over Negative),Binder
1,199 fold over negative,B1
2,511 fold over negative,B2
3,541 fold over negative,B3
4,463 fold over negative,B4
5,500 fold over negative,B5

# Molecular target: T3, anti-idiotypic antibody clone 32869
# T3 construct: Human IgG1 from HEK293, selected from the HuCAL library
# T3 sequence (VH, as listed by the source, chain 1 of 2): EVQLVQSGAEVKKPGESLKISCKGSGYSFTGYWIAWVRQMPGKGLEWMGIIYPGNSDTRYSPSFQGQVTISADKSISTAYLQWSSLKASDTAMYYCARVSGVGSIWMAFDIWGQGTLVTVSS
# T3 sequence (VL, as listed by the source, chain 2 of 2): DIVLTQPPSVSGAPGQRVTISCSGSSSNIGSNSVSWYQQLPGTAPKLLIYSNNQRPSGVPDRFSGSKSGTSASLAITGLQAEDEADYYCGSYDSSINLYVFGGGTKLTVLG
# Experiment: MSD electrochemiluminescence bridging ELISA: anti-idiotypic antibody 32869 coated on the plate, clone 31282 spiked in human serum, detection with Sulfo-TAG 32869
# Source text: The ELISA assay is based on the Meso Scale Discovery (MSD) Platform using electrochemiluminescence detection technology. […] A voltage is applied to the plate electrodes, causing the bound Sulfo-TAG to emit light via electrochemical stimulation.
row,binding result,Binder
1,binds,B10
